Among the data in patent US20080267989A1 are neutralization activity of 2F5 adsorbed out, SF162.LS virus (TZM-B1 cells, luciferase), neutralization activity of 2F5 adsorbed out, YU2.5G3 virus (TZM-B1 cells, luciferase) and fold enhancement of 2F5 binding to HBsAg-MPR particle values, retold here.

Test [1] has as its target 2F5 (broadly neutralizing human monoclonal antibody to the gp41 MPR). Description: cell-based or functional assay.
Test [2] shares this target. Description: competition ELISA, peptide serially diluted with 1 ug/ml 2F5 on NE3-captured HBsAg-MPR particles. For orientation: ELISA stands for enzyme-linked immunosorbent assay.

Turning to “HBsAg-MPR particles (HBsAg with the HIV-1 gp41 membrane proximal region at the C-terminus)”, in test [1], the neutralization activity of 2F5 adsorbed out, SF162.LS virus (TZM-B1 cells, luciferase) was found to be 21% and the neutralization activity of 2F5 adsorbed out, YU2.5G3 virus (TZM-B1 cells, luciferase) came to 10%.
With NEQELLELDKWASLWN [16-mer peptide harboring the 2F5 epitope (…)], the fold enhancement of 2F5 binding to HBsAg-MPR particle in test [2] amounted to 2 fold.
